# Measurements from patent publication US20080213256A1 (MICROMET, published 2008).
# T1: EpCAM (UniProt P16422 24-314, limits assumed)
# T1 construct: whole, on cells; also called EpCAM on EpCAM positive Kato III cells
# T1 sequence (looked up): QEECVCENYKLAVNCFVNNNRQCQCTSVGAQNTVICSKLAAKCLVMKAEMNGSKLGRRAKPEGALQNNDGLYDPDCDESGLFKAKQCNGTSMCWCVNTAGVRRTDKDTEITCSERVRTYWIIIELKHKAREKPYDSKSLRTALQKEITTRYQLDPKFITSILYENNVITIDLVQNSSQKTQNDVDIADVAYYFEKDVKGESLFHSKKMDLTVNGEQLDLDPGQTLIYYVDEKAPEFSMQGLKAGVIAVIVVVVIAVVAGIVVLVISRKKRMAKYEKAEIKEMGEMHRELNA
# T2: CD19 (human, UniProt P15391 20-556)
# T2 construct: whole, on cells; also called CD19 on CD19 positive Nalm 6 cells; NALM-6
# T2 sequence (looked up): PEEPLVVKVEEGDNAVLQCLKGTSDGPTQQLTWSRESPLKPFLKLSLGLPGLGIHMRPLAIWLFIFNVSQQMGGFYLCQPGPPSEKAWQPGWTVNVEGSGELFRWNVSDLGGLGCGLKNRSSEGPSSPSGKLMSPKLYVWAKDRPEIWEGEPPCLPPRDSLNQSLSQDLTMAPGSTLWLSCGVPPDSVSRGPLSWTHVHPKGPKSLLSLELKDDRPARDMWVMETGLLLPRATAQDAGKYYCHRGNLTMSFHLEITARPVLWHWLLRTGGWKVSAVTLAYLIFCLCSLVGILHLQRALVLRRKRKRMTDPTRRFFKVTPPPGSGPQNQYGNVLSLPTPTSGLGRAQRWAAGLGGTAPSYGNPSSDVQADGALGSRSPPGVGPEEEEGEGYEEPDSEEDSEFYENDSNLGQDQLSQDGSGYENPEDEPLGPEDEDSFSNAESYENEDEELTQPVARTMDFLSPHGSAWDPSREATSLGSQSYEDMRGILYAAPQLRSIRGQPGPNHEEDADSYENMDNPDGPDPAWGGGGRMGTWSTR
# What was measured:
# [1] = biological target: T1, EpCAM; test: FACS on Kato III cells, CHO supernatant (FIG. 2C)
# [2] = biological target: human CD3 complex (human, UniProt P07766 23-207; P04234 22-171; P09693 23-182); test: cell-based or functional assay
# [3] = biological target: T2, CD19; test: FACS on Nalm6 cells, detection via His tag
# Procedure: CD19 positive Nalm 6 cells (human B cell precursor leukaemia) and CD3 positive Jurkat cells (human T cell leukemia) were used. 200,000 Nalm 6 cells and 200,000 Jurkat cells were incubated with 50 μl the pure cell culture supernatant of CHO cells transfected with the anti-CD19xhum. anti-CD3 specific polypeptide for 30 min on ice. The cells were washed twice in PBS. Then the binding of the construct was detected via its C-terminal Histidin Tag with a murine Penta H is antibody (diluted 1:20 in 50 μl PBS with 2% FCS; Qiagen) followed by a washing step and a Phycoerythrin conjugated Fc gamma specific antibody (Dianova), diluted 1:100 in 50 μl PBS with 2% FCS (FIG. 2A, thick line). As negative control fresh cell culture medium instead of cell culture supernatant was used (FIG. 2, thin line).
# Cells were analysed by flow cytometry on a FACS-Calibur (Becton Dickinson, Heidelberg). FACS staining and measuring of the fluorescence intensity were performed as described in Current Protocols in Immunology (Coligan, Kruisbeek, Margulies, Shevach and Strober, Wiley-Interscience, 2002). The binding activity of the bispecific binding molecule was compared to the binding activity of the corresponding control bispecific antibody with the humanized OKT3 part as described in prior art.
# [4] = biological target: T1, EpCAM; test: FACS on KatoIII cells, detection via His tag
binder,measurement,setting,value
"bispecific anti-EpCAM (5-10)x hum. anti-CD3 antibody construct (SEQ ID NO.: 36) (bispecific antibody, Bispecific single chain Fv, tested as CHO culture supernatant) ELVMTQSPSSLTVTAGEKVTMSCKSSQSLLNSGNQKNYLTWYQQKPGQPPKLLIYWASTRESGVPDRFTGSGSGTDFTLTISSVQAEDLAVYYCQNDYSYPLTFGAGTKLEIKGGGGSGGGGSGGGGSEVQLLEQSGAELVRPGTSVKISCKASGYAFTNYWLGWVKQRPGHGLEWIGDIFPGSGNIHYNEKFKGKATLTADKSSSTAYMQLSSLTFEDSAVYFCARLRNWDEPMDYWGQGTTVTVSSGGGGSQVQLVQSGGGVVQPGRSLRLSCKSSGYTFTRYTMHWVRQAPGKGLEWIGYINPSRGYTNYNQKVKDRFTISRDNSKNTAFLQMDSLRPEDTGVYFCARYYDDHYCLDYWGQGTPVTVSSVEGGSGGSGGSGGSGGVDDIQMTQSPSSLSASVGDRVTITCRASSSVSYMNWYQQTPGKAPKRWIYDTSKVASGVPSRFSGSGSGTDYTFTISSLQPEDIATYYCQQWSSNPLTFGQGTKLQIT",binding result,[1],binds
"bispecific anti-CD19xhum. anti-CD3 antibody construct (SEQ ID NO.: 20) (bispecific antibody, Bispecific single chain Fv made in CHO cells; FACS used raw culture supernatant; the cytotoxicity assay used purified protein; also called anti-CD19xhum. anti-CD3 (improved hum. OKT3); bispecific humanized improved CD3 (hum. anti-CD3)) DIQLTQSPASLAVSLGQRATISCKASQSVDYDGDSYLNWYQQIPGQPPKLLIYDASNLVSGIPPRFSGSGSGTDFTLNIHPVEKVDAATYHCQQSTEDPWTFGGGTKLEIKGGGGSGGGGSGGGGSQVQLQQSGAELVRPGSSVKISCKASGYAFSSYWMNWVKQRPGQGLEWIGQIWPGDGDTNYNGKFKGKATLTADESSSTAYMQLSSLASEDSAVYFCARRETTTVGRYYYAMDYWGQGTTVTVSSGGGGSQVQLVQSGGGVVQPGRSLRLSCKSSGYTFTRYTMHWVRQAPGKGLEWIGYINPSRGYTNYNQKVKDRFTISRDNSKNTAFLQMDSLRPEDTGVYFCARYYDDHYCLDYWGQGTPVTVSSVEGGSGGSGGSGGSGGVDDIQMTQSPSSLSASVGDRVTITCRASSSVSYMNWYQQTPGKAPKRWIYDTSKVASGVPSRFSGSGSGTDYTFTISSLQPEDIATYYCQQWSSNPLTFGQGTKLQIT","cytotoxic activity (EC50), calcein release from NALM-6 target cells with CD4-positive CB15 T-cells",[2],0.05 ng/mL
same,binding result,[3],binds
"bispecific anti-EpCAM (3-1)x hum. anti-CD3 antibody construct (SEQ ID NO.: 34) (bispecific antibody, Bispecific single chain Fv, tested as CHO culture supernatant) ELVMTQSPSYLAASPGETITINCRASKSISKYLAWYQEKPGKTNKLLIYSGSTLQSGIPSRFSGSGSGTDFTLTISSLEPEDFAMYYCQQHNEYPYTFGGGTKLEIKGGGGSGGGGSGGGGSEVQLLEQSGAELVKPGASVKISCKASGYAFTNYWLGWVKQRPGHGLEWIGDLFPGSGNTHYNERFRGKATLTADKSSSTAFMQLSSLTSEDSAVYFCARLRNWDEAMDYWGQGTTVTVSSGGGGSQVQLVQSGGGVVQPGRSLRLSCKSSGYTFTRYTMHWVRQAPGKGLEWIGYINPSRGYTNYNQKVKDRFTISRDNSKNTAFLQMDSLRPEDTGVYFCARYYDDHYCLDYWGQGTPVTVSSVEGGSGGSGGSGGSGGVDDIQMTQSPSSLSASVGDRVTITCRASSSVSYMNWYQQTPGKAPKRWIYDTSKVASGVPSRFSGSGSGTDYTFTISSLQPEDIATYYCQQWSSNPLTFGQGTKLQIT",binding result,[4],binds
